Like-named read-outs stand apart in the source and are kept apart here.

Assay [1] deals with T1, human EGFR (aa 1 - 1,210), on cells (human, UniProt P00533 25-1210). The experiment in a line: cell-based or functional assay.
Assay [2] concerns the target T1, human EGFR (aa 1 - 1,210), on cells. The experiment in a line: cell-based or functional assay. This is another data set of the same source.
For assay [3] the target is unchanged. Description: flow cytometry, FaDu cells.
Assay [4] shares this target. The experiment in a line: flow cytometry, FaDu cells. The source holds these as a separate data set.
Assay [5] has the same target. Description: flow cytometry, SW620 cells.
Assay [6] addresses T2, CD3 on Jurkat cells (human, UniProt P07766 23-207).
T2 construct: whole, on cells; also called CD3-expressing Jurkat
The experiment in a line: flow cytometry, Jurkat cells.

Assay [7] concerns the target T1, human EGFR (aa 1 - 1,210), on cells. The experiment in a line: flow cytometry, LIM1215 cells.
The target is the same in assay [8]. The experiment in a line: flow cytometry, HCT-116 cells.
Assay [9] has as its target T3, EGFR-His fusion protein comprising the extracellular domain (aa 25 - 645) of human EGFR (human, UniProt P00533 25-645).
T3 construct: also called His-tagged extracellular domain of EGFR wt
Description: ELISA, coated EGFR-His.

The target of assay [10] is T3, EGFR-His fusion protein comprising the …. Description: ELISA, coated human EGFR.
The target of assay [11] is T1, human EGFR (aa 1 - 1,210), on cells. The experiment in a line: flow cytometry, DiFi cells.
Assay [12] shares this target. Description: flow cytometry, FaDu cells. The source holds these as a separate data set.
Assay [13] shares this target. The experiment in a line: flow cytometry, A431 cells.
Assay [14] shares this target. Description: flow cytometry, DiFi cells. The source holds these as a separate data set.
For assay [15] the target is unchanged. The experiment in a line: flow cytometry, FaDu cells. This is another data set of the same source.
Assay [16] deals with T3, EGFR-His fusion protein comprising the …. The experiment in a line: ELISA, coated human EGFR-His.
For assay [17], the target named is T4, EGFR-His fusion protein comprising the extracellular domain of murine EGFR (aa 25 - 647) (murine, UniProt Q01279 25-647).
T4 construct: Bought protein; also called mouse EGFR; Sino Biological 51091-M08H
Description: ELISA, coated murine EGFR-His.

For assay [18], the target named is T1, human EGFR (aa 1 - 1,210), on cells. Description: flow cytometry, LIM1215 cells. The source holds these as a separate data set.
The target in assay [19] is T5, EGFR-His fusion protein comprising the extracellular domain of cynomolgus monkey EGFR (aa 1 - 645) (cynomolgus monkey, UniProt P55245 25-645 (rhesus entry)).
T5 construct: Bought protein; also called Sino Biological SIN-90285-C08H-50
Description: ELISA, coated cynomolgus monkey EGFR-His.

In assay [20] the target is T6, EGFR-moIgG2a-Fc fusion protein comprising the extracellular domain (aa 25 - 645) of human EGFR (human).
T6 construct: also called EGFR wt
The experiment in a line: ELISA, coated EGFR-moIgG2a-Fc.

Assay [21] has as its target T7, EGFR-moIgG2a-Fc K489E (human).
T7 construct: See m39
Description: ELISA, coated mutant EGFR.

Assay [22] concerns the target T6, EGFR-moIgG2a-Fc fusion protein …. The experiment in a line: ELISA, coated EGFR-moIgG2a-Fc. This is another data set of the same source.
Assay [23] concerns the target T4, EGFR-His fusion protein comprising the …. The experiment in a line: ELISA, coated murine EGFR-His. This is another data set of the same source.
Assay [24] concerns the target T8, EGFR-moIgG2a-Fc G434A (human).
T8 construct: also called EGFR G434A
The experiment in a line: ELISA, coated mutant EGFR-moIgG2a-Fc.

Assay [25] deals with T9, EGFR-moIgG2a-Fc Q435P (human).
T9 construct: see m31; also called EGFR Q435P
The experiment in a line: ELISA, coated mutant EGFR-moIgG2a-Fc.

Assay [26] addresses T10, EGFR-moIgG2a-Fc F436A (human).
T10 construct: see m31; also called EGFR F436A
The experiment in a line: ELISA, coated mutant EGFR-moIgG2a-Fc.

The target in assay [27] is T11, EGFR-moIgG2a-Fc I462A (human).
T11 construct: see m31; also called EGFR I462A
The experiment in a line: ELISA, coated mutant EGFR-moIgG2a-Fc.

Assay [28] addresses T12, EGFR-moIgG2a-Fc F436A/I462A (human).
T12 construct: see m31; also called double mutant F436A/I462A
The experiment in a line: ELISA, coated mutant EGFR-moIgG2a-Fc.

Assay [29] deals with EGFR-moIgG2a-Fc S484A (human). Description: ELISA, coated mutant EGFR-moIgG2a-Fc.
The target in assay [30] is EGFR-moIgG2a-Fc K487A (human). Description: ELISA, coated mutant EGFR-moIgG2a-Fc.
Assay [31] deals with T13, EGFR-moIgG2a-Fc F381A/H383A (human).
T13 construct: also called F381/H383
Description: ELISA, coated mutant EGFR-moIgG2a-Fc.

The target of assay [32] is T4, EGFR-His fusion protein comprising the …. The experiment in a line: ELISA, coated murine EGFR-His, 10 nM IgG.
The target in assay [33] is T6, EGFR-moIgG2a-Fc fusion protein …. The experiment in a line: competition ELISA, coated EGFR-moIgG2a-Fc; 1 nM IgG against 200 nM Fab-His.

B1: Fab-eIg YU250-H10xhuU3 (bispecific antibody)
light: QSVLTQPPSVSGAPGQRVTISCSGGSSNVGRNGVNWFQHLPEKAPKLLIYYDAFLSSGVSDRFSGSKSGTSASLAIRGLQSDDEADYYCAAWDDSLYSWVFGGGTNLTVLGQPKAAPSVTLFPPSSEELQANKATLVCLISDFYPGAVTVAWKADSSPVKAGVETTTPSKQSNNKYAASSYLSLTPEQWKSHRSYSCQVTHEGSTVEKTVAPTECS
chain 1: not shown
chain 2: not shown
chain 3: not shown
notes: also called bispecific trivalent EGFRxCD3 Fab-eIg YU250-H10
In the case of B1, the “IC50 for cytotoxicity, FaDu + PBMCs (E:T 10:1)” value in [1] turned out to be 0.007 nM; in [2], 0.0048 nM. Also, in [1], the “IC50 for cytotoxicity, LIM1215 + PBMCs (E:T 10:1)” value was 0.003 nM. Moreover, the “IC50 for cytotoxicity, HCT-116 + PBMCs (E:T 10:1)” value in assay [2] was 0.003 nM. In addition, the “IC50 for cytotoxicity, SW620 + PBMCs (E:T 10:1)” value in assay [2] came out at 0.0049 nM. Further, the EC50 in [3] is 0.76 nM; in assay [4], 0.32 nM; in [5] it was 0.03 nM; in [6], over 10 nM; in assay [7], 0.27 nM; in [8], 0.13 nM.

B2: IgG1 YU250-A02 (antibody, V domains shown)
VH: QVQLQESGGGVVQPGGSLRLSCAASGFTFSSYGMHWVRQAPGKGLEWVAFIRYDGSNKYYADSVKGRFTISRDNSKNTLYLQMNSLRAEDTAVYYCAKDGNSGYDSMDYWGQGTLVTVSS
VL: QSVLTQPPSVSGAPGQRVTISCSGGSSNVGRNGVNWFQHLPEKAPKLLIYYDAFLSSGVSDRFSGSKSGTSASLAIRGLQSEDEADYYCASWDDSLTGWVFGGGTKLTVLG
notes: also called IgG YU250-A02
As to B2, the EC50 in assay [9] was 0.16 nM; in [10] it was 0.59 nM; in assay [11], 0.64 nM; in assay [12], 0.23 nM; in assay [13], 1.24 nM; in assay [14], 0.64 nM. The EC50 in [15] was 0.26 nM; in [16] it was 0.36 nM; in [17] it was 0.38 nM; in [18] it was 0.09 nM; in assay [19], 0.69 nM.

B3: IgG1 YU250-H10 (antibody)
light: QSVLTQPPSVSGAPGQRVTISCSGGSSNVGRNGVNWFQHLPEKAPKLLIYYDAFLSSGVSDRFSGSKSGTSASLAIRGLQSDDEADYYCAAWDDSLYSWVFGGGTNLTVLGQPKAAPSVTLFPPSSEELQANKATLVCLISDFYPGAVTVAWKADSSPVKAGVETTTPSKQSNNKYAASSYLSLTPEQWKSHRSYSCQVTHEGSTVEKTVAPTECS
heavy: not shown
notes: also called IgG YU250-H10
Consider B3, for which the EC50 in [9] came out at 0.19 nM; in [10], 0.78 nM; in assay [11] it was 0.78 nM; in assay [12] it was 0.29 nM; in [13], 1.56 nM; in [14], 0.73 nM. The EC50 in [15] was found to be 0.27 nM; in assay [16], 0.28 nM; in assay [20] it was 0.27 nM; in assay [17], 0.45 nM; in assay [18] it was 0.09 nM; in [19], 0.58 nM.

B4: Panitumumab (antibody, human IgG1, kappa, V domains shown)
VH: QVQLQESGPGLVKPSETLSLTCTVSGGSVSSGDYYWTWIRQSPGKGLEWIGHIYYSGNTNYNPSLKSRLTISIDTSKTQFSLKLSSVTAADTAIYYCVRDRVTGAFDIWGQGTMVTVSS
VL: DIQMTQSPSSLSASVGDRVTITCQASQDISNYLNWYQQKPGKAPKLLIYDASNLETGVPSRFSGSGSGTDFTFTISSLQPEDIATYFCQHFDHLPLAFGGGTKVEIKR
notes: also called IgG Panitumumab
B4: the binding result in [21] is recorded as “binds”; in [22] it was “binds”; in assay [23], “no binding (tested: 10 nM)”; in [24], “binds”; in [25] it was “binds”; in assay [26], “binds”. In addition, the binding result in assay [27] and in [28] was “binds” throughout.

B5: Matuzumab (antibody, human IgG1, kappa, V domains shown)
VH: QVQLVQSGAEVKKPGASVKVSCKASGYTFTSHWMHWVRQAPGQGLEWIGEFNPSNGRTNYNEKFKSKATMTVDTSTNTAYMELSSLRSEDTAVYYCASRDYDYDGRYFDYWGQGTLVTVSS
VL: DIQMTQSPSSLSASVGDRVTITCSASSSVTYMYWYQQKPGKAPKLLIYDTSNLASGVPSRFSGSGSGTDYTFTISSLQPEDIATYYCQQWSSHIFTFGQGTKVEIKR
notes: also called IgG Matuzumab
Take B5: the binding result in [22] is “binds”; in assay [23], “no binding (tested: 10 nM)”; in assay [24], “binds”; in assay [25], “binds”; in [26], “binds”; in assay [27], “binds”. For the same molecule, the binding result in [28] is “binds”; in assay [29], “no binding”; in assay [30], “no binding”. For the same molecule, the EC50 in assay [13] turned out to be 1.68 nM; in assay [14] it was 0.95 nM; in [15], 0.34 nM; in assay [18], 0.12 nM.

B6: IgG GC1118 (antibody, V domains shown)
VH: EVQLVESGGGVVQPGGSLRLSCAASGFTFSDYDMSWIRQAPGKGLEWVSGILGGSERSYYRDSVKGRFTISRDNSRKTLYLQMNSLRAEDTAVYYCARHGSPGYTLYAWDYWGQGTTVTVSS
VL: DIVMTQTPLSLPVTPGEPASISCRSNQDLTHSNGNTYLEWYLQKPGQSPRLLIYKVSNRFSGVPDRFSGSGAGTDFTLRISRVEAEDVGVYYCMQGTHWPWTFGQGTKVDIKR
notes: also called GC118
Turning to B6, the EC50 in assay [13] came out at 1.67 nM; in assay [14], 1.1 nM; in assay [15], 0.47 nM; in assay [18], 0.15 nM. For the same molecule, the binding result in assay [24] is given as “binds”; in assay [25] it was “binds”; in [26] it was “binds”; in assay [27], “binds”; in assay [28], “binds”; in assay [31], “no binding”. The binding result in assay [32] and in assay [33] was “binds” throughout.

The values above are taken from EP4454706A1 (Universität Stuttgart, dated 2024).
